Measurements from article PMC2702006.

Key:
human Hsp90β (human) = human Hsp90β (human) (UniProt P08238); assay: cross-linking
yeast Hsp90 L15A (yeast) = yeast Hsp90 L15A (yeast) (UniProt P02829)
yeast Hsp90 L18A (yeast) = yeast Hsp90 L18A (yeast) (UniProt P02829)
yeast Hsp90 L18R (yeast) = yeast Hsp90 L18R (yeast) (UniProt P02829)

human Hsp90β, P08238 1-724 (natural protein; other documents disagree on this pair), sequence (P08238 whole entry): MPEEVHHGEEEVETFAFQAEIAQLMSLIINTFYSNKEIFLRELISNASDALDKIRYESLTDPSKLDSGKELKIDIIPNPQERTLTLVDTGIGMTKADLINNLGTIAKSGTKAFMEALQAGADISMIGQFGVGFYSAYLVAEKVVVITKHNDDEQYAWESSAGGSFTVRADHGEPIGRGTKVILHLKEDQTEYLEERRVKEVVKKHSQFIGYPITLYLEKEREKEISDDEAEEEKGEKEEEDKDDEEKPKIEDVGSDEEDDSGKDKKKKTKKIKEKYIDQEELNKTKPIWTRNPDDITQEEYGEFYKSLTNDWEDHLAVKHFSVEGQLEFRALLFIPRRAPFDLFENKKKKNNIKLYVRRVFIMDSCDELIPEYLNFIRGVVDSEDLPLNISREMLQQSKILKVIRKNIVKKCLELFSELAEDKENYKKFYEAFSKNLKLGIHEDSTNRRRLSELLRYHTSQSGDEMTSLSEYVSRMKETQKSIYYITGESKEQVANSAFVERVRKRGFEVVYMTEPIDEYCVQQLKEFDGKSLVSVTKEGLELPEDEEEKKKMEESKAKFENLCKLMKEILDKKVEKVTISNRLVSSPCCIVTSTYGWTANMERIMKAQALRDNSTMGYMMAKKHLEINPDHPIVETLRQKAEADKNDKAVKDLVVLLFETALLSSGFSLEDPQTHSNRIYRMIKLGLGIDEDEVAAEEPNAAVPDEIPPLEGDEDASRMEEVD

## human Hsp90β, P08238 1-724 (natural protein; other documents disagree on this pair)
Human Hsp90β (human)
  stoichiometry N: 2

## yeast Hsp90 L15A (from UniProt P02829 1-709) (natural protein)
Yeast Hsp90 L15A (yeast)
  ATPase activity relative to wild-type yeast Hsp90: 157

## yeast Hsp90 L18A (from UniProt P02829 1-709) (natural protein)
Yeast Hsp90 L18A (yeast)
  ATPase activity relative to wild-type yeast Hsp90: 103

## yeast Hsp90 L18R (from UniProt P02829 1-709) (natural protein)
Yeast Hsp90 L18R (yeast)
  ATPase activity relative to wild-type yeast Hsp90: 42
